Results published in publication PMC7395460, “Structural mechanism of helicase loading onto replication origin DNA by ORC-Cdc6” (Proceedings of the National Academy of Sciences of the …, 2020).

Columns and labels:
Settings in all cases: both partners purified
Mcm7 = target: T1, Mcm7 (S. cerevisiae, UniProt P38132 1-845); assay: cryo-EM structure; pre-insertion OCCM, 8.1 Å; same loading reaction (purified ORC, Cdc6, Cdt1, mutant Mcm2-7, ARS1 DNA, ATPγS); models docked as rigid bodies
T1 construct: Mcm7 of S. cerevisiae; Stood in the assay as a subunit of the mutant Mcm2-7; in the semi-attached OCCM only its WHD is resolved
T1 sequence (looked up): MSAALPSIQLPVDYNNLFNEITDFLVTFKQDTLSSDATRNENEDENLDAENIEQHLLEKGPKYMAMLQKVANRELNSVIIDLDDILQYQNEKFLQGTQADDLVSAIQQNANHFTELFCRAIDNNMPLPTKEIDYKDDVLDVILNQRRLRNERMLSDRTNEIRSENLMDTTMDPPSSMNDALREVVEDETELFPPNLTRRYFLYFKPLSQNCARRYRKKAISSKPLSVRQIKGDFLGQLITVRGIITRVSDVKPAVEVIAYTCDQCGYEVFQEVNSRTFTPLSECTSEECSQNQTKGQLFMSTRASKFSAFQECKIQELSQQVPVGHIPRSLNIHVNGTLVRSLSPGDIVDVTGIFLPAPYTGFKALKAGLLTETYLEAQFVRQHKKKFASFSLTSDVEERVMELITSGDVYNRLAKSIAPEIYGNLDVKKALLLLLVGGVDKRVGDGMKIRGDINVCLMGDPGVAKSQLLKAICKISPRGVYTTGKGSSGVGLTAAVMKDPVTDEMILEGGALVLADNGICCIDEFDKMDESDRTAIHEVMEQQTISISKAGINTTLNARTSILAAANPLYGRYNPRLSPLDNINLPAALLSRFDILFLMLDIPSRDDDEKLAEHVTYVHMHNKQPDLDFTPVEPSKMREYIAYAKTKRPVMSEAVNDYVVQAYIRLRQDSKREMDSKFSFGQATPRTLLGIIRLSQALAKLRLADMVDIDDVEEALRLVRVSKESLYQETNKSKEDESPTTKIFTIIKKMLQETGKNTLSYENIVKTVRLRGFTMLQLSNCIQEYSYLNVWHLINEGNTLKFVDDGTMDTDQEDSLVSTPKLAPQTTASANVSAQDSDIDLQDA

Mcm3 = target: T2, Mcm3 (S. cerevisiae, UniProt P24279 1-971); assay: as above
T2 construct: Mcm3 of S. cerevisiae; Stood in the assay as a subunit of the mutant Mcm2-7; in the semi-attached OCCM only its WHD is resolved
T2 sequence (P24279 whole entry): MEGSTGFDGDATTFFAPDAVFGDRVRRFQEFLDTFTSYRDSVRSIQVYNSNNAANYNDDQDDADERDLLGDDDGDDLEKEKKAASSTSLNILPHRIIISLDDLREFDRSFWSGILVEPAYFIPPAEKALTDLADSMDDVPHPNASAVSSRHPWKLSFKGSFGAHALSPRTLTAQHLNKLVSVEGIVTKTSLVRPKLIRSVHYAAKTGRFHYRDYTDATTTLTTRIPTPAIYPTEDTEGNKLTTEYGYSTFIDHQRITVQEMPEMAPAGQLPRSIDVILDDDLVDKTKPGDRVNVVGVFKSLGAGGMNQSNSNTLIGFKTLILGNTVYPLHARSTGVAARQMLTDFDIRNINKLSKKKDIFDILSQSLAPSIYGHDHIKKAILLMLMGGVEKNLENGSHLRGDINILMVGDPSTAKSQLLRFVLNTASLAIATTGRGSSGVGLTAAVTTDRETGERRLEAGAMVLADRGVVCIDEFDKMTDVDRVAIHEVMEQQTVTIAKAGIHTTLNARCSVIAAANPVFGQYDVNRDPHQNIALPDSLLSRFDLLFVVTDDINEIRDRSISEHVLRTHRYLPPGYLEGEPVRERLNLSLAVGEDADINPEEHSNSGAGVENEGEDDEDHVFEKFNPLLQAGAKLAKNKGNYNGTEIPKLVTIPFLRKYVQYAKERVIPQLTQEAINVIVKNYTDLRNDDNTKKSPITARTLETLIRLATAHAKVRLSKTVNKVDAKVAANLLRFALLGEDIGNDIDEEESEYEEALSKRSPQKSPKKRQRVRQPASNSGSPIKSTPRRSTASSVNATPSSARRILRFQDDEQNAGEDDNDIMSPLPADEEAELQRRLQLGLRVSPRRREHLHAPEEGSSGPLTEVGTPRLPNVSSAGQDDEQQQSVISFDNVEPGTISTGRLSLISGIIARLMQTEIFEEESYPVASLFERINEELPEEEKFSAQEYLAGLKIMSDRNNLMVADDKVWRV

[1] = target: T3, origin recognition complex (Orc1-6; ORC) (S. cerevisiae, UniProt P54784 1-914; P32833 1-620; P54790 1-616; P54791 1-529; P50874 1-479; P38826 …); assay: cryo-EM structure; semi-attached OCCM, 4.3 Å; assembled from purified ORC, Cdc6, Cdt1 and mutant Mcm2-7 on pUC19-ARS1 DNA beads with 3 mM ATPγS, 15 min at 24 °C, eluted with DNase I
T3 construct: Orc1, subunit of the S. cerevisiae origin recognition complex; Orc2, subunit of the S. cerevisiae origin recognition complex; Orc3, subunit of the S. cerevisiae origin recognition complex; Orc4, subunit of the S. cerevisiae origin recognition complex; Orc5, subunit of the S. cerevisiae origin recognition complex; Orc6, subunit of the S. cerevisiae origin recognition complex; copies: + + + + +

Orc1 = target: T4, Orc1 (S. cerevisiae, UniProt P54784 1-914); assay: as above
T4 construct: Orc1, subunit of the S. cerevisiae origin recognition complex; Stood in the assay as a subunit of ORC
T4 sequence: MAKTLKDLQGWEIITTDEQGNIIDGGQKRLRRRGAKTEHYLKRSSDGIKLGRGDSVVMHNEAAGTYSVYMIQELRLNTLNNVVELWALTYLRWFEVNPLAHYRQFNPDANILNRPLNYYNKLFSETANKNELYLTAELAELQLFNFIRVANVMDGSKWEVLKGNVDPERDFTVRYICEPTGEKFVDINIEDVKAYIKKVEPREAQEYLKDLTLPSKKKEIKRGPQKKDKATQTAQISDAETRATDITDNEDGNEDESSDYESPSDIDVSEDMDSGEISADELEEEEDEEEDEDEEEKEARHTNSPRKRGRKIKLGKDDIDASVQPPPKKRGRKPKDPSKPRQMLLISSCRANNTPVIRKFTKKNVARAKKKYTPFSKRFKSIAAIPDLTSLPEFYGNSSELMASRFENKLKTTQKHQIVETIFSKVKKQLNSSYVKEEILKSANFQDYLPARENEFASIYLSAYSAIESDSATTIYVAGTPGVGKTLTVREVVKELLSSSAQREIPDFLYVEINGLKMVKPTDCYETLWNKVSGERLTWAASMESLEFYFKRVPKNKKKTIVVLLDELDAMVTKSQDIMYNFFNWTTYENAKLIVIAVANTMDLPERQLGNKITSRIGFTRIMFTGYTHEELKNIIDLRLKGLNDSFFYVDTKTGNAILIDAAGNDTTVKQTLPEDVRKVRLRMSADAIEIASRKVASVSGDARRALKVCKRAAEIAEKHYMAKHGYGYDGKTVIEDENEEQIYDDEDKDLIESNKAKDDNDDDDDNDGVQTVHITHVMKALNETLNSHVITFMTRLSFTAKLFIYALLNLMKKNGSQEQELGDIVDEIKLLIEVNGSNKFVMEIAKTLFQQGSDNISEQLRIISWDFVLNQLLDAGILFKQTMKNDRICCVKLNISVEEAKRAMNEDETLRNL

Measured: binding result

B1: Cdc6 (natural protein, S. cerevisiae)
chain: MSAIPITPTKRIRRNLFDDAPATPPRPLKRKKLQFTDVTPESSPEKLQFGSQSIFLRTKALLQKSSELVNLNSSDGALPARTAEYEQVMNFLAKAISEHRSDSLYITGPPGTGKTAQLDMIIRQKFQSLPLSLSTPRSKDVLRHTNPNLQNLSWFELPDGRLESVAVTSINCISLGEPSSIFQKIFDSFQDLNGPTLQIKNMQHLQKFLEPYHKKTTFVVVLDEMDRLLHANTSETQSVRTILELFLLAKLPTVSFVLIGMANSLDMKDRFLSRLNLDRGLLPQTIVFQPYTAEQMYEIVIQKMSSLPTIIFQPMAIKFAAKKCAGNTGDLRKLFDVLRGSIEIYELEKRFLLSPTRGSLNSAQVPLTPTTSPVKKSYPEPQGKIGLNYIAKVFSKFVNNNSTRTRIAKLNIQQKLILCTIIQSLKLNSDATIDESFDHYIKAITKTDTLAPLQRNEFLEICTILETCGLVSIKKTKCKGKTKRFVDKIDVDLDMREFYDEMTKISILKPFLH
notes: Cdc6 of S. cerevisiae
binds: all assays above
